# Reference: US20240180855A1, “BIOACTIVE PRODUCTS” (priority 2021, published 2024)
# Test system: wheat
# Assay: Wheat growth after seed treatment with complexes of inhibitors and nucleases (Example 5)
# Format: in vivo
# Conditions: seeds treated 1 hour at 37° C.; cultivation 23° C.
# Protocol: Plant: wheat Treatment: The seeds were treated with various products for 1 hour, at 37° C. […] Cultivation temperature 23° C.
molecule,measurement,value
"Proteinase K: protease (protein, UniProt P06873 106-384, looked up) Proteinase K: AAQTNAPWGLARISSTSPGTSTYYYDESAGQGSCVYVIDTGIEASHPEFEGRAQMVKTYYYSSRDGNGHGTHCAGTVGSRTYGVAKKTQLFGVKVLDDNGSGQYSTIIAGMDFVASDKNNRNCPKGVVASLSLGGGYSSSVNSAAARLQSSGVMVAVAAGNNNADARNYSPASEPSVCTVGASDRYDRRSSFSNYGSVLDIFGPGTSILSTWIGGSTRSISGTSMATPHVAGLAAYLMTLGKTTAASACRYIADTANKGDLSNIPFGTVNLLAYNNYQA",Chlorophyll total,35.2 mg/g
same,Emergence (%),42%
same,Root lenght,4.3
same,Shoot length,0.0
